12 molecules from patent publication US20040110161, “Method for detecting mutations in nucleotide sequences” (published 2004) can be followed below.

Residue numbers refer to the chain shown, from its start.

The target of data set [1] is T1, MutS (Cy5-labeled) (Escherichia coli, UniProt P23909 P23909:1-853).
T1 sequence: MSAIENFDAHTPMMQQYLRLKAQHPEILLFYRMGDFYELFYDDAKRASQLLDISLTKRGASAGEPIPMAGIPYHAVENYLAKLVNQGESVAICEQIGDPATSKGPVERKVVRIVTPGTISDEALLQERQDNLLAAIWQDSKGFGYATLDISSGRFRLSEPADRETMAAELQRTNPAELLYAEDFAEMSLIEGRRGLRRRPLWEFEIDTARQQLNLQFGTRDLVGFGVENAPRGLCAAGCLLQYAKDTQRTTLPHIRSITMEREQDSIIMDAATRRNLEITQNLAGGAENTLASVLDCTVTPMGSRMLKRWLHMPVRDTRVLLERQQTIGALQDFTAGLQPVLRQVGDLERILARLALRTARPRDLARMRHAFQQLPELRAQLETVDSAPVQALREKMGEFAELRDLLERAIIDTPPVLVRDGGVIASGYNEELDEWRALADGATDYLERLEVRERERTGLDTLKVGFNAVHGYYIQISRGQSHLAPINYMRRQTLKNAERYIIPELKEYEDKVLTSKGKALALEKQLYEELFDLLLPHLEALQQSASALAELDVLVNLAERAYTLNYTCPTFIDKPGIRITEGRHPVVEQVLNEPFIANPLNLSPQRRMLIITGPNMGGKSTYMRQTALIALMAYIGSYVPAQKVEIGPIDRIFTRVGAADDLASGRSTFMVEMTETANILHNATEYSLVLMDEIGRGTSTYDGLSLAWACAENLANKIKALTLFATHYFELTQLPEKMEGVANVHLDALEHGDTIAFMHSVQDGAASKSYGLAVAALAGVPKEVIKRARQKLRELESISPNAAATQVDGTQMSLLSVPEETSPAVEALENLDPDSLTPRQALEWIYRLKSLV
Nature of the data set: EMSA; 150 mM KCl, 10 mM MgCl2; labeled and unlabeled. As to conditions: tags: Cy5 nonspecific amine label; also Gene Check unlabeled in EMSA; label: 5'-biotin (SPR); 5'-32P (EMSA); G/T mismatch. The protocol: Subsequently, the band shift method was used to check whether the Cy™5-conjugated mutS proteins were functionally active, i.e. whether they were still able to bind specifically to base mispairings. For this, heteroduplexes were generated by hybridizing the oligonucleotides […] (Seq. ID No. 6) and “GT” (Seq. ID No. 7), respectively, with the “sense” oligonucleotide (Seq. ID No. 11) by heating for 5 minutes at 95° C. in […] tris-HCl, 100 mM KCl, 5 mM MgCl₂, followed by cooling slowly down to room temperature. […] Using T₄ polynucleotide kinase (New England Biolabs, Frankfurt), 10 pmol each of the two heteroduplexes which wer produced using the “AT” and “GT” oligonucleotides were radioactively labeled, in accordance with the manufacturer's instructions, with 150 μCi of ³²P-ATP at their 5′ ends and purified through Sephadex G50 gel filtration columns (Pharmacia, Uppsala, Sweden) in accordance with the manufacturer's instructions. […] After the run, the gels were dried and analyzed by autoradiography (FIG. 6).

Data set [2] has as its target T1, MutS (Cy5-labeled). Nature of the data set: hydrogel chip fluorescence. As to conditions: tags: Cy5 nonspecific amine label, also Gene Check unlabeled in EMSA. The text has this:
(§1) The biotinylated “sense” oligonucleotide (Seq. ID No. 10) was electronically addressed to the individual positions on the hydrogel chip, for 60 sec. and at a voltage of 2.1 V, in the Nanogen workstation loading appliance. The hybridization with the second-strand AT (Seq. ID No. 12), GT (Seq. ID No. 13), AA (Seq. ID No. 14), AG (Seq. ID No. 15), CA (Seq. ID No. 16), CC (Seq. ID No. 17), CT (Seq. ID No. 18), GG (Seq. ID No. 19), TT (Seq. ID No. 20), ins+1T (Seq. ID No. 21), ins+2T (Seq. ID No. 22) and ins+3T (Seq. ID No. 23) oligonucleotides was carried out for 120 sec. at 2.1 V. The loading scheme is shown in Table 45; the name of each second-strand oligonucleotide indicates the mispairing or insertion (“ins”) which is formed on hybridization.
(§2) After the loading, the chips were taken out of the loading appliance, filled with 1 ml of blocking buffer and incubated at room temperature for 60 min in order to saturate nonspecific protein-binding sites. The binding of E.coli mutS (ChipA), MBP-MutS (ChipB), Thermus aquaticus mutS (ChipC) and Thermus thermophilus mutS (Chip D) to the resulting DNA double strands was then tested. For this, the chips were incubated for 60 min with in each case 2-3 μg of the Cy™5-labeled mutS proteins in 100 μl of incubation buffer. The chips which were incubated with E.coli mutS and MBP mutS were incubated at room temperature while the chips which were incubated with Thermus aquaticus mutS and Thermus thermophilus mutS were incubated at 37° C. After this incubation, the chips were washed by hand with 10 ml of incubation buffer and inserted into the Nanogen reader. In the reader, the chips were washed, at a temperature of 37° C. (E.coli mutS and MBP-mutS) or 50° C. (Thermus aquaticus mutS and Thermus thermophilus mutS), 70-80× with in each case 0.25 ml of washing buffer.
(§3) Finally, the Cy™3 and Cy™5 fluorescence intensities at the individual positions on the chips were measured in the Nanogen reader using the following instrument settings: high sensitivity (“high gain”) in the case of Cy™5, low sensitivity (“low gain”) in the case of CY™3; 256 μs integration time. Care was taken to ensure that the Cy™3 fluorescence intensity was distributed homogeneously over the chip surface.
For orientation: Mobility shift assays separate free from complexed probe on a gel.

Data set [3] addresses T2, MBP-MutS fusion (Cy5-labeled) (Escherichia coli, UniProt P23909 P23909:1-853).
T2 chain: T1 sequence
The data set can be described thus: hydrogel chip fluorescence. As to conditions: label: 5'-biotin, 5'-Cy3.
Excerpt: as §1, §2, §3

Data set [4] concerns the target T1, MutS (Cy5-labeled). Nature of the data set: impedance spectroscopy; 100 mM KCl, 5 mM MgCl2. As to conditions: tags: Cy5 nonspecific amine label; also Gene Check unlabeled in EMSA; hairpin, two G/T mismatches. How it is done:
(§4) The individual electrodes were measured in aqueous K₃/K₄Fe(CN)₆ solution (Darmstadt, Germany) (20 mM in 20 mM tris buffer, 100 mM KCl, 5 mM MgCl), in the frequency range from 100 mHz to 1 MHz […], before and after incubating with mutS. The measured values are shown in the Bode diagram. The measurements were carried out, at room temperature, on an IM 6e impedance measuring desk supplied by Zahner Messtechnik.
(§5) The advantage of this method is that it is possible to carry out measurements on the samples without destroying them and without using labels. The mutation-recognizing E. coli mutS protein was used as a model system for the binding of mispairing-recognizing substrates, while Seq. ID Nos. 50 and 51 were used as duplex-forming oligonucleotides. […] The results of the measurement are depicted in FIGS. 29A and 29B.

Data set [5] has as its target T1, MutS (Cy5-labeled). The data set can be described thus: impedance spectroscopy; no or only very slight binding. As to conditions: tags: Cy5 nonspecific amine label; also Gene Check unlabeled in EMSA; hairpin. How it is done:
as §4, §5

B1: sense(36)/GT (dsDNA)
DNA 1: AAGCATACGGAAGTTAAAGTGCGGATCATCTCTAGC
DNA 2: TGGCTAGAGATGATCCGCGCTTTAACTTCCGTATGC
With B1, the binding result with MutS (Cy5-labeled) [1] is reported as “binds”.

B2: sense/CT mismatch (dsDNA)
DNA 1: AAGCATACGGAAGTTAAAGTGCGGATCATCTCTAGCCA
DNA 2: B1 DNA 2 with G19C
As to B2, the binding signal in the data set with MutS (Cy5-labeled) [2] (label: 5'-biotin, 5'-Cy3, C/T mismatch) stood at 6.24 fold vs AT; in data set [3] (C/T mismatch) it was 3.56 fold vs AT.

B3: sense/AT perfect duplex (dsDNA)
DNA 1: B2 DNA 1
DNA 2: B1 DNA 2 with G19A
Regarding B3, in the data set with MutS (Cy5-labeled) [2] (label: 5'-biotin sense, 5'-Cy3 AT), the binding signal was 1 fold vs AT.

B4: sense/TT mismatch (dsDNA)
DNA 1: B2 DNA 1
DNA 2: B1 DNA 2 with G19T
For the molecule B4, the binding signal was 1.82 fold vs AT in the data set with MutS (Cy5-labeled) [2] (label: 5'-biotin, 5'-Cy3, T/T mismatch) and 1.94 fold vs AT in data set [3] (T/T mismatch).

B5: sense/AC mismatch (dsDNA)
DNA 1: B2 DNA 1
DNA 2: B1 DNA 2 with G19A, T21C
With B5, the binding signal with MutS (Cy5-labeled) [2] (label: 5'-biotin, 5'-Cy3, A/C mismatch) is 5.73 fold vs AT; in data set [3] (A/C mismatch) it was 2.53 fold vs AT.

B6: sense/CC mismatch (dsDNA)
DNA 1: B2 DNA 1
DNA 2: B1 DNA 2 with G17C, G19A
B6: the binding signal in the data set with MutS (Cy5-labeled) [2] (label: 5'-biotin, 5'-Cy3, C/C mismatch) was 1.37 fold vs AT.

B7: sense/GT mismatch (dsDNA)
DNA 1: B2 DNA 1
DNA 2: B1 DNA 2
As to B7, the binding signal was 29 fold vs AT with MutS (Cy5-labeled) [2] (label: 5'-biotin, 5'-Cy3, G/T mismatch) and 22.3 fold vs AT in data set [3] (G/T mismatch).

B8: sense/AA mismatch (dsDNA)
DNA 1: B2 DNA 1
DNA 2: B1 DNA 2 with G19A, T21A
B8: the binding signal was 13 fold vs AT with MutS (Cy5-labeled) [2] (label: 5'-biotin, 5'-Cy3, A/A mismatch) and 4.03 fold vs AT in data set [3] (A/A mismatch).

B9: sense/GG mismatch (dsDNA)
DNA 1: B2 DNA 1
DNA 2: B1 DNA 2 with G19A, C20G
Regarding B9, the binding signal was found to be 18.4 fold vs AT with MutS (Cy5-labeled) [2] (label: 5'-biotin, 5'-Cy3, G/G mismatch) and 6.5 fold vs AT in data set [3] (G/G mismatch).

B10: sense/AG mismatch (dsDNA)
DNA 1: B2 DNA 1
DNA 2: B1 DNA 2 with G19A, C20A
B10: the binding signal with MutS (Cy5-labeled) [2] (label: 5'-biotin, 5'-Cy3, A/G mismatch) was 3.34 fold vs AT; in data set [3] (A/G mismatch), 2.72 fold vs AT.

Regarding ATTCGATCGGGGCGGGGCGAGCTTTTTGCTCGCCTTGCCCCGATCGAAT (structured_DNA, 5'-SH, amino modifier X in loop) [hairpin with two GT mispairings], in the data set with MutS (Cy5-labeled) [4], the binding result is “binds”.

Consider ATTCGATCGGGGCGGGGCGAGCTTTTGCTCGCCCCGCCCCGATCGAAT (structured_DNA, 5'-SH, amino modifier X in loop) [hairpin perfectly paired], for which the binding result with MutS (Cy5-labeled) [5] was “no binding”.
